Values of other authors as cited in publication PMC3137898.
pKd: −log10 of the molar value.

Molecular target: syntrophin PDZ (Mus musculus) (UniProt Q61234)
Sequence (Q61234 78-167): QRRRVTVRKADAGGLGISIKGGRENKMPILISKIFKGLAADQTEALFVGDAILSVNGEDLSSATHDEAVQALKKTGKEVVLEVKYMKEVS

Sequence of neuronal nitric oxide synthase PDZ (P29476 14-102): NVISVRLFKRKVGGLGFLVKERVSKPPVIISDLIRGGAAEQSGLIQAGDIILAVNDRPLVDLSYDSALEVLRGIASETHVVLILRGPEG

pKd: 6.22
Substance: neuronal nitric oxide synthase PDZ (from UniProt P29476)
